The values below come from US20110294195A1.

This assay concerns the target CD81 on Huh7.5 cells (human) (UniProt P60033). Description: cell-based or functional assay.
UniProt P60033, sequence (P60033 whole entry): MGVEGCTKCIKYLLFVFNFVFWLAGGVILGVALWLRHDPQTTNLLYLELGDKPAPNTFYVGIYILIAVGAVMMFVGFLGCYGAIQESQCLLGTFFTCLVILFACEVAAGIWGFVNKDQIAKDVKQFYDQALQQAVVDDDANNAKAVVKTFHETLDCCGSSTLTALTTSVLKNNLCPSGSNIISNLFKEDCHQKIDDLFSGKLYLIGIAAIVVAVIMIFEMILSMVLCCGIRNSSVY

With “anti-CD81 (JS-81; BD Biosciences Pharmingen, Franklin Lakes, N.J.) (antibody)”, the % inhibition of infection of Huh7.5 cells (FFU) with genotype 2a recombinant J6/JFH1 at 0.02 µg/mL anti-CD81 is below 50 % inhibition, the % inhibition of infection of Huh7.5 cells (FFU) with genotype 2a recombinant J6/JFH1 at 2.5 µg/mL anti-CD81 is above 90 % inhibition, the % inhibition of infection of Huh7.5 cells (FFU) with genotype 7a recombinant QC69/JFH1 at 0.02 µg/mL anti-CD81 was below 50 % inhibition and the % inhibition of infection of Huh7.5 cells (FFU) with genotype 7a recombinant QC69/JFH1 at 2.5 µg/mL anti-CD81 is above 90 % inhibition.
